Assay results published in patent US20230416410A1.
Each block holds one substance with its values, some of them ahead of it.

What was measured:
[1] = target: Fc gamma receptors on bovine alveolar macrophages; test: cell-based or functional assay
[2] = target: recombinant bovine FcRn (bovine) (UniProt F6R592); test: SPR Biacore, bFcRn on SA sensor, pH 7.4, 25 C
[3] = target: recombinant bovine FcRn (bovine) (UniProt F6R592); test: SPR Biacore, bFcRn on SA sensor, pH 6, 25 C
[4] = target: recombinant bovine Fcg2R (bovine); test: SPR Biacore, bFcg2R amine-coupled on CM5, pH 7.4, 15 C
Sequence of recombinant bovine Fcg2R (bovine) (main, as listed by the source): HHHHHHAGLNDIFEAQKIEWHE

[5] = target: recombinant bovine FcRn (bovine) (UniProt F6R592); test: SPR Biacore, bFcRn on SA sensor, pH 7.4, 25 C; remark: listed apart in the source
[6] = target: recombinant bovine FcRn (bovine) (UniProt F6R592); test: SPR Biacore, bFcRn on SA sensor, pH 6, 25 C; remark: listed apart in the source
[7] = target: recombinant bovine FcRn (bovine) (UniProt F6R592); test: SPR Biacore, bFcRn, pH 6; against bIgG1a and bIgG3a mAbs

Sequence of recombinant bovine FcRn (bovine) (chain, as listed by the source, chain 1 of 2): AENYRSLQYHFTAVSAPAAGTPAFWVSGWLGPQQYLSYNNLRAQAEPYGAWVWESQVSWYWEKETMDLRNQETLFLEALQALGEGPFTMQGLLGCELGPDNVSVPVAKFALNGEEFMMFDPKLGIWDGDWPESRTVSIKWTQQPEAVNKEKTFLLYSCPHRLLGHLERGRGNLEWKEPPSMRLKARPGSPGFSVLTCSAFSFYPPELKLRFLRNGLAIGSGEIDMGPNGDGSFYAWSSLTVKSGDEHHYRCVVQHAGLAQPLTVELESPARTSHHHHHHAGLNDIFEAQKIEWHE
Sequence of recombinant bovine FcRn (bovine) (P01888 21-118, chain 2 of 2): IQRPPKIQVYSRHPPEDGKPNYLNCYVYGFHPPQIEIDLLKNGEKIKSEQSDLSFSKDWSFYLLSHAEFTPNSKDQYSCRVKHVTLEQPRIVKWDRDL

ADCP EC50 Value [1]: 0.014 µg/mL
Substance: CTLA4bG2a (from UniProt Q9XSI1 36-161) (Fc fusion)

Kd [2]: 131 nM
Kd [3]: 0.254 nM
Kd [4]: 13.3 nM
Kd [5]: 147 nM
Kd [6]: 3.06 nM
fold higher affinity than bIgG1a and bIgG3a [7]: 10 fold
Substance: bIgG2a wildtype mAb (antibody)

ADCP EC50 Value [1]: 0.029 µg/mL
Substance: CTLA4 Fc bIgG3a (from UniProt Q9XSI1 36-161) (Fc fusion)

ADCP EC50 Value [1]: 0.003 µg/mL
Substance: CTLA4 Fc bIgG1a (from UniProt Q9XSI1 36-161) (Fc fusion)
